“And” between values parts separate entries of the source, which are not always exact repeats. Identical values can stand only once.
Columns and labels:
HER2 ECD [1] = target: T1, HER2 ECD (human, UniProt P04626 23-652); assay: SPR Biacore 8K, captured Ab, HER2 ECD analyte; printed mean
T1 construct: extracellular domain; also called HER2/neu; ErbB2

HER2 ECD [2] = target: T1, HER2 ECD; assay: SPR Biacore 8K, captured Ab, HER2 ECD analyte; replicate 2
HER2 ECD [3] = target: T1, HER2 ECD; assay: SPR Biacore 8K, captured Ab, HER2 ECD analyte; replicate 1

B1: HER-78 anti-HER2 bispecific antibody molecule (bispecific antibody)
chain 1: QVQLVQSGAEVKKPGASVKVSCKASGYSFTGYFINWVREAPGQGLEWMGHISSSYATSTYNQKFQGRVTFTVDTSSSTAYMELSSLRSEDTAVYYCVRSGNYEEYAMDYWGQGTLVTVSS
chain 2: not shown
Kd (HER2 ECD [1]): 440 pM and 436 pM
koff (HER2 ECD [1]): 7.28e-05 s⁻¹
kon (HER2 ECD [1]): 164000 M⁻¹ s⁻¹
Kd (HER2 ECD [2]): 570 pM
koff (HER2 ECD [2]): 9.89e-05 s⁻¹
kon (HER2 ECD [2]): 174000 M⁻¹ s⁻¹
Kd (HER2 ECD [3]): 540 pM and 544 pM
koff (HER2 ECD [3]): 7.53e-05 s⁻¹
kon (HER2 ECD [3]): 138000 M⁻¹ s⁻¹

— patent US20250223376A1 (VOYAGER THERAPEUTICS, published 2025)
